Target: T1, Human phosphatase PRL3, amino acids 1–169 (wild type) (human, UniProt O75365 1-169)
T1 construct: N-terminal extension Gly-Ser-His left after thrombin cleavage of the His tag; phosphatase of regenerating liver 3 (PRL3), human, amino acids 1-169; also called PRL3-wt; wild-type PRL3; not shown: His6, N-terminal, cleaved
Experiment: ITC; syringe 160 μM PRL2 or PRL3, cell 16 μM CNNM3 CBS-pair domain as a GST fusion; 22 °C; 30 injections of 10 μl; fitted to a single set of identical sites
Conditions: both partners purified

T1 sequence (O75365 other isoform, or with tags, fused parts or gaps): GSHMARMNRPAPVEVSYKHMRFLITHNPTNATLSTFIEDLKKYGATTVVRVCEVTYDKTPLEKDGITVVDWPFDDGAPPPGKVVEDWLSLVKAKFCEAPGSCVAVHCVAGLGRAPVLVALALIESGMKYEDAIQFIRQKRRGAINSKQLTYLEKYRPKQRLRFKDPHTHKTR

Kd: 11 nM
B1: CNNM3 CBS-pair domain as a GST fusion (domain or fragment, human)
chain: LRCRTVEDVLTPLEDCFMLDASTVLDFGVLASIMQSGHTRIPVYEEERSNIVDMLYLKDLAFVDPEDCTPLSTITRFYNHPLHFVFNDTKLDAVLEEFKRGKSHLAIVQKVNNEGEGDPFYEVLGLVTLEDVIEEIIRSEILDE
notes: CBS-pair domain of human CNNM3; also called CBS-pair (Bateman) domain of CNNM3

— article PMC5427921, “PRL3 phosphatase active site is required for binding the putative magnesium transporter CNNM3” (Scientific Reports, 2017)
